# Assay results taken from paper PMC7508878.
# Where “and” joins values, the source holds several entries; their conditions need not be identical. Equal entries are not always repeated.
# What was measured:
# [1] = biological target: Tri1 protein of the varicella-zoster virus heterotriplex (varicella-zoster virus (strain vOka)); test: cryo-EM structure; VZV A-capsids purified from infected MRC-5 cells, in 1x PBS; single-particle reconstruction with block-based (localized) reconstruction of an asymmetric unit, 3.7 Å
# [2] = biological target: major capsid protein (MCP) of varicella-zoster virus (varicella-zoster virus (strain vOka)) (UniProt P09245); test: as above
Substance,stoichiometry N (Tri2 per Tri1) [1],stoichiometry N [2]
Tri2 protein of the varicella-zoster virus heterotriplex (natural protein),2,
major capsid protein (MCP) of varicella-zoster virus (from UniProt P09245 1-1396) (natural protein),,5 and 6
